Measurements from the Human Domainome abundance scans (Beltran et al. 2025).
± gives the uncertainty stated by the source.

B1: Transcription elongation regulator 1-like protein, residues 448 to 504; numbered along this chain, Q5VWI1 (parent)
chain: LPLEERVTHFRDMLLERGVSAFSTWEKELHKIVFDPRYLLLNSEERKQIFEQFVKTR

Variants of: B1
Assay: abundance fitness (aPCA) (normalised: wild type 0, dead -1); higher = more abundant; growth selection in yeast, the domain comes from the species named
Conditions: Homo sapiens

Row | Variant | abundance fitness
1 | LPLEERVTHFRDMLLERGVSAFSTWDKELHKIVFDPRYLLLNSEERKQIFEQFVKTR | -0.168 ± 0.31
2 | LPLEERVTHFRDMLLERGVSAFSTWGKELHKIVFDPRYLLLNSEERKQIFEQFVKTR | -0.643 ± 0.16
3 | LPLEERVTHFRDMLLERGVSAFSTWKKELHKIVFDPRYLLLNSEERKQIFEQFVKTR | -1.04 ± 0.42
4 | LPLEERVTHFRDMLLERGVSAFSTWPKELHKIVFDPRYLLLNSEERKQIFEQFVKTR | -0.294 ± 0.39
5 | LPLEERVTHFRDMLLERGVSAFSTWAKELHKIVFDPRYLLLNSEERKQIFEQFVKTR | -0.636 ± 0.28
6 | LPLEERVTHFRDMLLERGVSAFSTWMKELHKIVFDPRYLLLNSEERKQIFEQFVKTR | -0.09 ± 0.32
7 | LPLEERVTHFRDMLLERGVSAFSTWLKELHKIVFDPRYLLLNSEERKQIFEQFVKTR | -0.564 ± 0.11
8 | LPLEERVTHFRDMLLERGVSAFSTWCKELHKIVFDPRYLLLNSEERKQIFEQFVKTR | 0.153 ± 0.33
9 | LPLEERVTHFRDMLLERGVSAFSTWFKELHKIVFDPRYLLLNSEERKQIFEQFVKTR | -0.617 ± 0.17
10 | LPLEERVTHFRDMLLERGVSRFSTWEKELHKIVFDPRYLLLNSEERKQIFEQFVKTR | -0.364 ± 0.19
11 | LPLEERVTHFRDMLLERGVSVFSTWEKELHKIVFDPRYLLLNSEERKQIFEQFVKTR | -0.22 ± 0.15
12 | LPLEERVTHFRDMLLERGVSTFSTWEKELHKIVFDPRYLLLNSEERKQIFEQFVKTR | -0.399 ± 0.3
13 | LPLEERVTHFRDMLLERGVSWFSTWEKELHKIVFDPRYLLLNSEERKQIFEQFVKTR | -0.594 ± 0.26
14 | LPLEERVTHFRDMLLERGVSKFSTWEKELHKIVFDPRYLLLNSEERKQIFEQFVKTR | -0.286 ± 0.11
15 | LPLEERVTHFRDMLLERGVSEFSTWEKELHKIVFDPRYLLLNSEERKQIFEQFVKTR | -0.165 ± 0.17
16 | LPLEERVTHFRDMLLERGVSCFSTWEKELHKIVFDPRYLLLNSEERKQIFEQFVKTR | -0.202 ± 0.34
17 | LPLEERVTHFRDMLLERGVSSFSTWEKELHKIVFDPRYLLLNSEERKQIFEQFVKTR | -0.303 ± 0.19
18 | LPLEERVTHFRDMLLERGVSPFSTWEKELHKIVFDPRYLLLNSEERKQIFEQFVKTR | -0.114 ± 0.1
19 | LPLEERVTHFRDMLLERGVSGFSTWEKELHKIVFDPRYLLLNSEERKQIFEQFVKTR | -0.365 ± 0.094
20 | LPLEERVTHFRDMLLERGVSYFSTWEKELHKIVFDPRYLLLNSEERKQIFEQFVKTR | -0.482 ± 0.11
21 | LPLEERVTHFRDMLLERGVSQFSTWEKELHKIVFDPRYLLLNSEERKQIFEQFVKTR | -0.245 ± 0.34
22 | LPLEERVTHFRDMLLERGVSFFSTWEKELHKIVFDPRYLLLNSEERKQIFEQFVKTR | -0.593 ± 0.23
23 | LPLEERVTHFRDMLLERVVSAFSTWEKELHKIVFDPRYLLLNSEERKQIFEQFVKTR | -0.612 ± 0.26

Row | Variant | abundance fitness
24 | LPLEERVTHFRDMLLERQVSAFSTWEKELHKIVFDPRYLLLNSEERKQIFEQFVKTR | -0.454 ± 0.31
25 | LPLEERVTHFRDMLLERRVSAFSTWEKELHKIVFDPRYLLLNSEERKQIFEQFVKTR | -0.316 ± 0.11
26 | LPLEERVTHFRDMLLERTVSAFSTWEKELHKIVFDPRYLLLNSEERKQIFEQFVKTR | 0.098 ± 0.24
27 | LPLEERVTHFRDMLLERWVSAFSTWEKELHKIVFDPRYLLLNSEERKQIFEQFVKTR | -0.746 ± 0.25
28 | LPLEERVTHFRDMLLERSVSAFSTWEKELHKIVFDPRYLLLNSEERKQIFEQFVKTR | -0.33 ± 0.14
29 | LPLEERVTHFRDMLLERGVSAFSTAEKELHKIVFDPRYLLLNSEERKQIFEQFVKTR | -0.589 ± 0.09
30 | LPLEERVTHFRDMLLERGVSAFSTVEKELHKIVFDPRYLLLNSEERKQIFEQFVKTR | -0.668 ± 0.11
31 | LPLEERVTHFRDMLLERGVSAFSTNEKELHKIVFDPRYLLLNSEERKQIFEQFVKTR | -0.557 ± 0.31
32 | LPLEERVTHFRDMLLERGVSAFSTYEKELHKIVFDPRYLLLNSEERKQIFEQFVKTR | 0.169 ± 0.28
33 | LPLEERVTHFRDMLLERGVSAFSTIEKELHKIVFDPRYLLLNSEERKQIFEQFVKTR | -0.393 ± 0.46
34 | LPLEERVTHFRDMLLERGVSAFSTREKELHKIVFDPRYLLLNSEERKQIFEQFVKTR | -0.531 ± 0.12
35 | LPLEERVTHFRDMLLERGVSAFSTQEKELHKIVFDPRYLLLNSEERKQIFEQFVKTR | -0.751 ± 0.47
36 | LPLEERVTHFRDMLLERGVSAFSTLEKELHKIVFDPRYLLLNSEERKQIFEQFVKTR | -0.795 ± 0.29
37 | LPLEERVTHFRDMLLERGVSAFSTEEKELHKIVFDPRYLLLNSEERKQIFEQFVKTR | -0.713 ± 0.21
38 | LPLEERVTHFRDMLLERGVSAFSTDEKELHKIVFDPRYLLLNSEERKQIFEQFVKTR | -0.986 ± 0.31
39 | LPLEERVTHFRDMLLERGVSAFSTSEKELHKIVFDPRYLLLNSEERKQIFEQFVKTR | -0.55 ± 0.28
40 | LPLEERVTHFRDMLLERGVSAFSTGEKELHKIVFDPRYLLLNSEERKQIFEQFVKTR | -0.898 ± 0.16
41 | LPLEERVTHFRDMLLERGVSAFSTMEKELHKIVFDPRYLLLNSEERKQIFEQFVKTR | -0.154 ± 0.33
42 | LPLEERVTHFRDMLLERGCSAFSTWEKELHKIVFDPRYLLLNSEERKQIFEQFVKTR | -0.611 ± 0.44
43 | LPLEERVTHFRDMLLERGTSAFSTWEKELHKIVFDPRYLLLNSEERKQIFEQFVKTR | -0.674 ± 0.25
44 | LPLEERVTHFRDMLLERGLSAFSTWEKELHKIVFDPRYLLLNSEERKQIFEQFVKTR | -0.998 ± 0.32
45 | LPLEERVTHFRDMLLERGWSAFSTWEKELHKIVFDPRYLLLNSEERKQIFEQFVKTR | -0.767 ± 0.27
46 | LPLEERVTHFRDMLLERGGSAFSTWEKELHKIVFDPRYLLLNSEERKQIFEQFVKTR | -0.7 ± 0.13
